Source: US20110165660A1, “ENGINEERED MICROORGANISMS WITH ENHANCED FERMENTATION ACTIVITY” (VERDEZYNE, INC., priority 2009, published 2011)

Experiments:
xylose = test: In vitro xylose isomerase activity assay on soluble whole cell extract (sorbitol dehydrogenase/NADH coupled, A340; Km, specific activity); format: biochemical, Saccharomyces cerevisiae
Procedure: […] Louis, Mo.), and about 2 U sorbitol dehydrogenase (Roche) at about 30° C. […] A Beckman DU-800 was utilized with an Enzyme Mechanism software package (Beckman Coulter, Inc.), and the change in the A340 was monitored for 2-3 minutes.
(§1) Approximately 20 μg of soluble whole cell extract from each transformed cell line, prepared using Y-PER plus reagent as described above, was incubated in a solution containing about 100 mM Tris, pH 7.5, 10 mM MgCl ? 2, 0.15 mM NADH (Sigma, St. Louis, Mo.), and 2 U Sorbitol Dehydrogenase (SDH) (Roche, Indianapolis, Ind.) at about 30° C. […] A Beckman DU-800 spectrophotometer was utilized with an Enzyme Mechanism software package (Beckman Coulter, Inc, Brea, Calif.), and the change in the A340 was monitored for 2-3 minutes.
as §1, with “line was” for “line,”, “above” for “above,”, “MgCl2,” for “MgCl ? 2,”, “sorbitol dehydrogenase” for “Sorbitol Dehydrogenase”
as §1, with “line was” for “line,”, “above” for “above,”

[1] = tested on: xylose isomerase activity; test: Heterologous xylose isomerase expression in engineered yeast (active yes/no); settings: xylose isomerase of the donor organism expressed in engineered yeast (S. cerevisiae)
6-phosphogluconate = test: EDA activity assay: S. cerevisiae EDA extracts with saturating E. coli EDD extract, LDH/NADH coupled; format: biochemical, Saccharomyces cerevisiae
Procedure: EDA extracts were prepared using the following protocol.
Grow 5 ml LB-Kan preps of BF1055 (BL21/DE3 with pET26b empty vector) and BF1706 (BL21DE3 with pET26b+E. coli EDD).
Grow 50 ml LB-Kan prep of BF1055, 2% (v/v) inoculate.
Grow 50 ml prep of BF1706 using Novagen's Overnight Express (46.45 ml LB-Kan, 1 ml solution 1, 2.5 ml solution 2, 50 μl solution 3, 5 μl of 1M MnCl2, 50 μl of 0.5 M FeCl2), 2% (v/v) inoculate.
Inoculate to OD600 of 0.2.
EDD extractions (adapted from Chemyan et al, Protein Science 16:2368-2377, 2007): • 1) Pellet cells in 50 ml conical tubes, 4° C., 3,000 rpm, 10 mins, discard supernatant. • 2) Resuspend in 2 ml degassed PDGH buffer (20 mM MES pH 6.5, 30 mM NaCl, 5 mM MnCl2, 0.5 mM FeCl2, 10 mM 2-mercaptoethanol, 10 mM cysteine, sparged with nitrogen gas). Move to hungate tube. • 3) Add 0.1% Triton X-100, 10 ng/ml DNase, 10 μg/ml PMSF, 10 μg/ml TAME (Nα-(p-toluene sulfonyl)-L-arginine methyl ester), 100 μg/ml lysozyme. • 4) Sparge hungate tube with nitrogen gas, cap and seal. […]
Each reaction contains 50 mM Tris-HCl, pH 7, 10 mM MgCl2, 0.15 mM NADH, 15 μg LDH, saturating amounts of EDD determined empirically (usually ˜100 μg), 1-50 μg EDA (depending on level of activity), and 1 mM 6-phosphogluconate. Reactions are started by the addition of 6-phosphogluconate and monitored for 5 mins at 30° C.

[2] = Western blot (anti-6xHis) of EDD and EDA expression in yeast, soluble/insoluble extract; set-up: species or system Saccharomyces cerevisiae; settings: C-terminal HIS tag, S. cerevisiae BY4742; total crude and solubilized extract; FIGS. 13A and 13B
Procedure: Transformation of the p426GPD plasmids containing an edd or an eda variant gene into yeast strain BY4742 was accomplished using the Zymo Research frozen-EZ yeast transformation II kit according to the manufacturer's protocol. The transformed BY4742 cells were selected by growth on a synthetic dextrose medium (SD) (0.67% yeast nitrogen base-2% dextrose) containing complete amino acids minus uracil (Krackeler Scientific Inc). Plates were incubated at about 30° C. for about 48 hours. Transformant colonies for each edd and eda variant were inoculated onto 5 ml of SD minus uracil medium and cells were grown at about 30° C. and shaken at about 250 rpm for about 24 hours. Cells were harvested by centrifugation at 1000×g for about 5 minutes, after which protein crude extract was prepared with Y-PER Plus (Thermo Scientific) according to the manufacturer's instructions. Whole cell extract protein concentrations were determined using the Coomassie Plus Protein Assay (Thermo Scientific) according to the manufacturer's directions. For each edd and eda variant His-tagged construct, about 10 μg of soluble and insoluble fractions were loaded on 4-12% NuPAGE Novex Bis-Tris protein gels (Invitrogen) and proteins were analyzed by western using anti-(H is)6 (SEQ ID NO: 138) mouse monoclonal antibody (Abcam) and HRP-conjugated secondary antibody (Abcam). […]

## Piromyces: xylose isomerase from Piromyces strain E2 (SEQ ID NO: 35)
xylose; soluble whole cell extract, pH 7.5, 30° C.
  Specific Activity: 2.02 µmol/min/mg
[1]
  Active? (yes/no): Yes

B1: E. coli EDA: 2-keto-3-deoxygluconate-6-phosphate aldolase (eda) from E. coli expressed in yeast (protein, UniProt P0A955 1-213, looked up)
KHG/KDPG aldolase: MKNWKTSAESILTTGPVVPVIVVKKLEHAVPMAKALVAGGVRVLEVTLRTECAVDAIRAIAKEVPEAIVGAGTVLNPQQLAEVTEAGAQFAISPGLTEPLLKAATEGTIPLIPGISTVSELMLGMDYGLKEFKFFPAEANGGVKALQAIAGPFSQVRFCPTGGISPANYRDYLALKSVLCIGGSWLVPADALEAGDYDRITKLAREAVEGAKL
6-phosphogluconate; EDA expressed in S. cerevisiae, saturating E. coli EDD
  EDA activity relative to the EDA from P. aeruginosa: approximately 16 fold
6-phosphogluconate; repeat: 100 μg EDD and 25 μg EDA cell lysates (5 μg E. coli EDA), FIG. 24
  EDA activity ranking: most active
[2]
  expression and solubility (western): expressed and soluble

B2: PAO1 EDD: phosphogluconate dehydratase (edd) from P. aeruginosa PAO1 (SEQ ID NO: 70) (protein, listed as Pseudomonas aeruginosa)
chain: MHPRVLEVTRRIQARSAATRQRYLEMVRAAASKGPHRGTLPCGNLAHGVAACGESDKQTLRLMNQANVAIVSAYNDMLSAHQPFERFPGLIKQALHEIGSVGQFAGGVPAMCDGVTQGEPGMELSLASRDVIAMSTAIALSHNMFDAALCLGVCDKIVPGLLIGSLRFGHLPTVFVPAGPMPTGISNKEKAAVRQLFAEGKATREELLASEMASYHAPGTCTFYGTANTNQLLVEVMGLHLPGASFVNPNTPLRDELTREAARQASRLTPENGNYVPMAEIVDEKAIVNSVVALLATGGSTNHTLHLLAIAQAAGIQLTWQDMSELSHVVPTLARIYPNGQADINHFQAAGGMSFLIRQLLDGGLLHEDVQTVAGPGLRRYTREPFLEDGRLVWREGPERSLDEAILRPLDKPFSAEGGLRLMEGNLGRGVMKVSAVAPEHQVVEAPVRIFHDQASLAAAFKAGELERDLVAVVRFQGPRANGMPELHKLTPFLGVLQDRGFKVALVTDGRMSGASGKVPAAIHVSPEAIAGGPLARLRDGDRVRVDGVNGELRVLVDDAEWQARSLEPAPQDGNLGCGRELFAFMRNAMSSAEEGACSFTESLNGWR
[2]
  expression and solubility (western): expressed and soluble

B3: R. flavefaciens, FD-1 XI: xylose isomerase from R. flavefaciens FD-1 (SEQ ID NO: 110) expressed in S. cerevisiae (protein, listed as Ruminococcus flavefaciens)
chain: MEFFKNISKIPYEGKDSTNPLAFKYYNPDEVIDGKKMRDIMKFALSWWHTMGGDGTDMFGCGTADKTWGENDPAARAKAKVDAAFEIMQKLSIDYFCFHDRDLSPEYGSLKDTNAQLDIVTDYIKAKQAETGLKCLWGTAKCFDHPRFMHGAGTSPSADVFAFSAAQIKKALESTVKLGGTGYVFWGGREGYETLLNTNMGLELDNMARLMKMAVEYGRSIGFKGDFYIEPKPKEPTKHQYDFDTATVLGFLRKYGLDKDFKMNIEANHATLAQHTFQHELCVARTNGAFGSIDANQGDPLLGWDTDQFPTNIYDTTMCMYEVIKAGGFTNGGLNFDAKARRGSFTPEDIFYSYIAGMDAFALGYKAASKLIADGRIDSFISDRYASWSEGIGLDIISGKADMAALEKYALEKGEVTDSISSGRQELLESIVNNVIFNL
xylose; 100 μg total soluble crude extract, 500 mM xylose, FIG. 25
  activity (slope) at saturating xylose: highest activity of the candidates tested
xylose; xylose concentrations between 40 and 500 nM
  specific activity relative to native XI control: greater than 2 fold
